In US12098206B2, “PDGF receptor antibody and use thereof” (Seoul National University R&DB Foundation, priority 2018, dated 2024):
Entries after “also recorded” stand apart in the source; their conditions may differ.

B1: PRb-CN16: anti-hPDGFR-β scFv clone (VH SEQ ID NO 39, VL SEQ ID NO 40), tested as scFv-Cκ-anti-cotinine scFv bispecific antibody (antibody, V domains shown)
VH: AVTLDESGGGLQTPGTALSLVCKASGFTFSSFNMAWVRQAPGKGLEFVGEISNTAGSTFYAPAVKGRATISRDNGQSTVRLQLNNLRAEDTAIYYCAKAAGTCYSHSCTGYIDAWGHGTEVIVSSTS
VL: LTQPSSVSANPGETVKITCSGSSSSYGWYQQKSPGSAPVTLIYENNQRPSNIPSRFSGSKSGSTGTLTITGVQAEDEAVYYCGNADRSNSAGTFGAGTTLTVL
modifications: VH of PRb-CN16; VL of PRb-CN16
B2: PRb-CN32: anti-hPDGFR-β scFv clone (VH SEQ ID NO 47, VL SEQ ID NO 48), tested as scFv-Cκ-anti-cotinine scFv bispecific antibody (antibody, V domains shown)
VH: AVTLDESGGGLQTPRGTLSLVCKASGFTFSSFNMFWVRQAPGKGLEFVAGISTTGRYTGYGSAVQGRGTISRDNGQSTVRLQLNNLRAEDTGTYYCAKSAGSTYSYWDSDAGLIDAWGHGTEVIVSSTS
VL: LTQPSSVSANLGETVKITCSGGSNAGSYYYGWYQQKSPGSAPVTVIYSNNQRPSDIPSRFSGSTSGSTSTLTITGVQVDDEAVYFCGSGDSSSIAAFGAGTTLTVL
modifications: VH of PRb-CN32; VL of PRb-CN32
B3: PRb-CN26: anti-hPDGFR-β scFv clone (VH SEQ ID NO 55, VL SEQ ID NO 56), tested as scFv-Cκ-anti-cotinine scFv bispecific antibody (antibody, V domains shown)
VH: AVTLDESGGGLQTPGGGLSLVCKASGFTFSDRGIHWVRQAPGKGLEWVAGIGNTGSYTAYAPAVKGRATISRDNGQSTVRLQLNNLRAEDTATYYCAKRGFMDAGGIDAWGHGTEVIVSSTS
VL: LTQPSSVSANPGETVKITCSGGGSYAGSYYYGWYQQKSPGSAPVTVIYDNTNRPSNIPSRFSGSLSGSTDTLTITGVQAEDEAVYFCGGYDGISDTGIFGAGTTLTVL
modifications: VH of PRb-CN26; VL of PRb-CN26

Key:
PDGFR-β = PDGFR-β (Homo sapiens, UniProt P09619); assay: Competition enzyme immunoassay with hPDGF-BB; format: binding; set-up: made in house; conditions: hPDGF-BB 100 nM
PDGFR-β, sequence (P09619 33-531): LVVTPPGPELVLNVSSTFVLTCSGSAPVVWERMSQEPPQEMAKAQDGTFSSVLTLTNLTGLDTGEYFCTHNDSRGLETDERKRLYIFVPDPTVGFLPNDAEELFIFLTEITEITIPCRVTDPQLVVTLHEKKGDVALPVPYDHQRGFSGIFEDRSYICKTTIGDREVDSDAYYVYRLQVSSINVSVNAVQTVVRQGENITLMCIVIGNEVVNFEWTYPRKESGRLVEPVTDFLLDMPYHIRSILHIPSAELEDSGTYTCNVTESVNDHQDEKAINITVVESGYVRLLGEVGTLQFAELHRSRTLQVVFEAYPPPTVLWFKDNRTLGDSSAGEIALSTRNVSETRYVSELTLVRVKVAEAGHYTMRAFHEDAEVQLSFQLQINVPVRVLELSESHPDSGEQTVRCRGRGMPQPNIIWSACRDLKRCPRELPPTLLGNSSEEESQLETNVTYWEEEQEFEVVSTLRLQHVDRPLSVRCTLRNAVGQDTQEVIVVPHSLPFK
Procedure: In order to confirm the competition between the bispecific antibody scFv-Cκ-scFv and hPDGF-BB, as in Example 3, hPDGFR-β-Fc chimera was coated on a microtiter plate and then blocked. The microtiter plate was treated with various concentrations of the bispecific antibody (0.01 nM-1 μM) with or without addition of hPDGF-BB (100 nM; 220-BB; R&D systems), and then incubated at 37° C. for 2 hours. The washing, incubation, and detection were performed in the same manner as the enzyme immunoassay described above.

hPDGFR-β and cotinine = biological target: T1, hPDGFR-β and cotinine (Homo sapiens, UniProt P09619); assay: Enzyme immunoassay, simultaneous binding to cotinine and hPDGFR-β; conditions: cotinine-BSA coated wells, then hPDGFR-β-Fc chimera; FIG. 12d
T1 construct: made in house
T1 sequence (P09619 33-531): as above
Procedure: In order to determine of the simultaneous binding ability of cotinine and hPDGFR-β, an anti-hPDGFR-β x cotinine scFv-Cκ-scFv fusion protein was cultured in wells coated with cotinine-BSA. Washing was performed for each process, and hPDGFR-β-Fc chimeric protein and HRP-anti human Fc antibody were incubated in order. The three kinds of bispecific antibody scFv-Cκ-scFv fusion proteins simultaneously bound to hPDGFR-β and cotinine (FIG. 12d).

human pericyte cells [1] = assay: Internalization analysis by confocal microscopy in human pericyte cells; format: cell-based
Procedure: Human pericyte cells were treated with the diluted bispecific antibody scFv-Cκ-scFv (10 μg/mL) in pericyte growth medium supplemented with 10% FBS, and internalized at 37° C. for 30 minutes. The analysis was performed in the same manner according to the protocol of the confocal microscope of the anti-mPDGFR-β x cotinine scFv-Cκ-scFv fusion protein of Example 4. After the addition of hPDGF-BB (50 ng/mL) to the bispecific antibody scFv-Cκ-scFv fusion protein, the confocal microscopy experiments were performed according to the same protocol.
The internalization of the bispecific antibody scFv-Cκ-scFv fusion protein was visualized. After treatment of human pericyte cells with the fusion protein, antibodies bound to the cell surface were removed. After cell fixation, the fusion protein was stained with FITC-anti human Cκ antibody (green). To visualize early endosomes, the cells were stained with anti-Rab5 antibody and Alexa Fluor 546-goat anti-rabbit antibody IgG (red). […] DNA was stained with DAPI (blue)(Scale bar, 10 μm). FIG. 13d was repeated with hPDGF-BB.
To measure the cellular internalization of the bispecific antibody of scFv-Cκ-scFv, anti-hPDGFR-β x cotinine scFv-Cκ-scFv fusion protein was incubated in human pericyte cells, and then treated with FITC-anti-human Cκ antibody and endosome-specific antibody. It was imaged using a confocal microscope. […] When the images were merged, the present inventors confirmed that the fluorescence of the two antibody clones and the endosome-specific antibody were co-localized. […] Internalization of the antibody is very important for delivery of drug into the target cell. […] Therefore, it is useful for intracellular delivery of drug to patients with diseases.

Rhesus PDGFR-β = biological target: T2, Rhesus PDGFR-β (Macaca mulatta, UniProt I0FLK2); assay: Cross-species enzyme immunoassay, Rhesus PDGFR-β; format: binding; conditions: 100 nM; FIG. 17
T2 construct: Fc; purchased Sino Biological Inc. 90215-C02H
T2 sequence (I0FLK2 33-531 limits assumed): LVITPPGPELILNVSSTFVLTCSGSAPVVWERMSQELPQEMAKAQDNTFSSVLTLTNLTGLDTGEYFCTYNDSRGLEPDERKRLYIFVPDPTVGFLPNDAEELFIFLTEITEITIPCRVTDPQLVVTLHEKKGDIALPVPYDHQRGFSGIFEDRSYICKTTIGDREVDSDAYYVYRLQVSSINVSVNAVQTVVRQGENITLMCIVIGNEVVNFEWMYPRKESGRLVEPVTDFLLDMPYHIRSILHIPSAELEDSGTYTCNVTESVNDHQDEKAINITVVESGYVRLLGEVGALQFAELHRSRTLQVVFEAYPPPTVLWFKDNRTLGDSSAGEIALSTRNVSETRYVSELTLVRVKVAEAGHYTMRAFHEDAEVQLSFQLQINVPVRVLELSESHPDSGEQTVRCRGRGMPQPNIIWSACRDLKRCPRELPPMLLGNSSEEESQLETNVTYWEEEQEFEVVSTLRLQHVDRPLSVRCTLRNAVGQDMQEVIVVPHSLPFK
Procedure: 100 ng of hPDGFR-β, mPDGFR-β, rhesus PDGFR-β (90215-C02H, Sino Biological Inc. Beijing, China), cynomolgus monkey PDGFR-β, Sus scrofa PDGFR-β-Fc chimera or TNF-α receptor extracellular domain-human Fc fusion protein was coated with 4° C. temperature O/N. After blocking the wells, sequential culture of the anti-hPDGFR-β scFv-Cκ-scFv fusion protein and the HRP conjugated anti-human Cκ antibody was followed in the same manner as in Example 3.
FIG. 17 is a graph showing an experiment of the cross-species reaction of the bispecific antibody against the anti-hPDGFR-β antibody according to the present invention. On the microtiter plates coated with hPDGFR-β, mPDGFR-β, Rhesus PDGFR-β, Cynomolgus monkey PDGFR-β, Sus scrofa PDGFR-β and control Fc coated, the bispecific antibody containing anti-hPDGFR-β antibody according to the present invention (100 nM) was reacted and the amount of bound bispecific antibody was measured using HRP conjugated anti-human Cκ antibody and TMB.

human pericyte cells [2] = assay: Anti-proliferative (cytotoxicity) test in human pericyte cells, cellular ATP; format: cell-based; conditions: with or without hPDGF-BB; FIGS. 14a and 14b
Procedure: Human pericyte cells were added to 50 μL of DMEM supplemented with 10% FBS and 1% penicillin/streptomycin, placed in a 96-well plate (CLS3595, Corning) and incubated overnight in 5% CO2 at 37° C. incubator. In each well containing 50 μL of cells, 50 μL of 50 anti-hPDGFR-β x cotinine scFv-Cκ-scFv fusion protein (25.6 pM-2 μM) complexed with cot-duo was added and incubated for 72 hours in 5% CO2 and 37° C. incubator.
To evaluate the effect of hPDGF-BB on the toxicity of the complex of the bispecific antibody of scFv-Cκ-scFv and cot-duo, hPDGF-BB (2 nM) was added together with 50 μL of the bispecific antibody scFv-Cκ-scFv and cot-duo complex. The mixed complexes were added to 50 μL of cell-containing solution. The bispecific antibody anti-mCD154 x cotinine scFv-Cκ-scFv was used as a control. Other experimental methods were carried out in the same manner as in the protocol of the anti-mPDGFR-β x cotinine scFv-Cκ-scFv fusion protein in Example 7.
In order to evaluate the toxicity of the anti-hPDGFR-β x cotinine scFv-Cκ-scFv fusion protein and cot-duo complexes, the complex was treated in human pericyte cells with or without hPDGF-BB, and the cells were […] to measure the relative viability. The toxicity of the bispecific antibody of anti-hPDGFR-β x cotinine scFv-Cκ-scFv fusion protein and cot-duo complex was shown by IC50 (Table 8).

[3] = 10 μg/mL, 37° C., 30 minutes, absence of hPDGF-BB, FIG. 13c
[4] = treated with hPDGF-BB (50 ng/mL), FIG. 13d

Molecule	binding ability to hPDGFR-β in the presence of hPDGF-BB (PDGFR-β)	simultaneous binding to hPDGFR-β and cotinine (hPDGFR-β and cotinine)	cellular internalization (human pericyte cells [1]; [3])	cellular internalization (human pericyte cells [1]; [4])	cross-species binding, Rhesus PDGFR-β (Rhesus PDGFR-β)	toxicity of complex with cot-duo in human pericyte cells, comparison (human pericyte cells [2])
B1	not inhibited in the presence of hPDGF-BB	capable of simultaneously binding hPDGFR-β and cotinine	Intracellular fluorescence was detected	co-localized with endosome-specific antibody	confirmed to bind	higher toxicity than control anti-mCD154 x cotinine scFv-Cκ-scFv
B2	not inhibited in the presence of hPDGF-BB	capable of simultaneously binding hPDGFR-β and cotinine	Intracellular fluorescence was detected; also recorded: internalizes most effectively	co-localized with endosome-specific antibody	confirmed to bind	higher toxicity than control anti-mCD154 x cotinine scFv-Cκ-scFv; also recorded: highest cytotoxicity
B3	not inhibited in the presence of hPDGF-BB	capable of simultaneously binding hPDGFR-β and cotinine	not internalized	co-localized with endosome-specific antibody; also recorded: internalized in a large amount within 30 minutes	confirmed to bind	higher toxicity than control anti-mCD154 x cotinine scFv-Cκ-scFv; also recorded: highest cytotoxicity
